# In US20240383999A1 (University of Texas, published 2024):
# T1: Human recombinant CD5L protein (Sino Biological, Catalog Number 10791-H08H) (human, UniProt O43866 20-347)
# T1 construct: Bought protein; also called human CD5L; CD5L-His; not shown: 6xHIS-tag
# T1 sequence (looked up): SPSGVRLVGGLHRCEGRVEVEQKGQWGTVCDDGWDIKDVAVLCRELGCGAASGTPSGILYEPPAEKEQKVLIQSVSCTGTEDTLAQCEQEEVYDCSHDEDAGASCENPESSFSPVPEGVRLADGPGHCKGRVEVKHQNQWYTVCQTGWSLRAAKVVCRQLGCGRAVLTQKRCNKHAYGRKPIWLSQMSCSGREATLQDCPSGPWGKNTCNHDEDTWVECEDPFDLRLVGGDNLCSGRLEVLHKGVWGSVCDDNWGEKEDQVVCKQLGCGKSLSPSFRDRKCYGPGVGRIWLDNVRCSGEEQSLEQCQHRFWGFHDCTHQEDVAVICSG
# B1: R-3 (antibody, V domains shown)
# VH: QSLKESGGRLVKPDETLTITCTASGIDLTSGTVGWFRQAPGKGLEWIGIIRGSGSTYYATWAKGRFTISKTSTTVDLKLTSPTTEDTATYLCARAFPGYNTFFNFWGQGTLVTISS
# VL: ELDLTQTPSSVEAAVGGTVTIKCQASESIGNALAWYQQKPGQPPKLLIWKASNLESGVPPRFKGSGSGTEFTLTISDLECADAATYYCQRYYFNGVSVEIVFGGGTEVVVKG
# B2: R-13 (antibody, V domains shown)
# VH: QSLEESGGRLVTPGTPLTLTCTVSGFSLSSYPMSWVRQAPGKGLEWIGIITSGGSIFYATWANGRFTISKTSTTVDLKITSPTTEDTATYFCARGYSSGTMMSSNLWGQGTLVTVSS
# VL: ELVLTQTPASVSEPVGGTVTIKCQASESISTYLSWYQQKPGQRPKLLIYRASTLESGVPSRFKGSGSGTEYTLTISGVQCADAATYYCQQGYTYKNVDNAFGGGTEVVVK
# B3: H-447 (antibody, V domains shown)
# VH: EVQLVQSGGGLVQPGGSLRLSCAASGFTVSSNYMSWVRQAPGKGLEWVSVIYSGGSTYYADSVKGRFTISRHNSKNTLYLQMNSLRAEDTAVYYCARESAVAGWGMDVWGKGTTVTVSS
# VL: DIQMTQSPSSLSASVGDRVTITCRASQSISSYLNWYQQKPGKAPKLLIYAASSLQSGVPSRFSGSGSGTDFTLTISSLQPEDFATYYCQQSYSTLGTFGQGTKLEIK
# B4: R-45 (antibody, V domains shown)
# VH: QSVKESGGRLVTPGTPLTLTCTVSGFSINDFHMCWVRQAPGKGLEYIGMIGTGGSAYYATWTKGRFTISRTSTTVDLKITSPTTEDTATYFCARRDWSDGGYSLLWGQGTLVTVSS
# VL: ELDLTQTPASVSEPVGGTVTIKCQASQSIRTYLNWYQQKPGQPPKLLIYSASTLASGIPSRFKGSGSGTQFTLTISDLECADAATYYCQQGYYWSDVENTFGGGTEVEIN
# B5: R-40 (antibody, V domains shown)
# VH: QSVKESGGRLVKPDETLTITCTVSGIDLSRYSIQWVRQAPGGGLQWIGVMSIGSSAYYANWAKGRFTISKTSSTTVDLTMTSLTAADTATYFCARSNLYRGAFDPWGPGTLVTISS
# VL: ELVMTQTPASVEAAVGGTVTIKCQSSESVYKNNYLSWYQLKPGQPPKLLFYSASTLASRVPSRFSGSGSGTQFTLTISDLECDDAATYYCAGYYGSSSVDRYTFGGGTEVEIK
# B6: R-35 (antibody, V domains shown)
# VH: AAVKESGGRLVTPGTPLTLTCTVSGIDLSDYYMTWVRQAPGKGLEYIGIIYASGNAYFASWAKGRFTISRTSSTTVDLNVASPTTEDTATYFCARNIGGSSNLWGQGTLVTVSS
# VL: ELDMTQTPASVSEPVGGTVTIKCQASERIYNNLAWYQQKPGQPPKLLFYSASTLASGVPSRFKGSGSGTEFTLTISDLECADAAIYYCQCTGYGTTYGLVFGGGTEVEI
# notes: also called anti-CD5L antibody R-35; CD5L antibody (R-35)
# B7: R-34 (antibody, V domains shown)
# VH: QSVKESGGRLVTPGTPLTLTCTVSGFSLSSSGMSWVRQAPGKGLEWIGLTFPSGSASYASWAKGRFTVSRTSTTVDLNLTSPTTEDTATYFCAHVGATTGRDFWGQGTLVTVSS
# VL: ELVMTQTASSVSAAVGGTVTISCQSSQNIYNNRWSWYQQKPGQPPKLLIYQASTLASGVPSRFKGSGSGTQFTLTISGVQCDDAATYYCAGGYSGTIFTFGGGTELEIK
# Molecular target: T1, Human recombinant CD5L protein (Sino …)
# Assay: titration ELISA, human CD5L coated on plate
# Procedure: FIG. 11. […] Bound antibody was detected using a secondary antibody against rabbit IgG conjugated with HRP and TMB substrate for detection of A450 nm. EC₅₀ was estimated using GraphPad software by applying a 4-parameter fitting to calculate binding affinity of the antibodies.
# Binding constants (EC₅₀) of a panel of monoclonal antibodies were estimated by titration ELISA, and the data were analyzed using the 4-parameter curve fitting with GraphPad Prism program (Table 6).
row,EC50 [mg/L],Binder
1,0.183,B1
2,0.116,B2
3,0.25,B3
4,0.0788,B4
5,0.21,B5
6,0.169,B6
7,0.22,B7

# Molecular target: T1, Human recombinant CD5L protein (Sino …)
# Assay: BLI (Octet RED96), antibody on protein A biosensors, CD5L 0.1-200 nM in solution, 1:1 fit
# Procedure: All experiments were performed with shaking at 1,000 rpm. Background wavelength shifts were measured from reference biosensors that were loaded only with antibody. ForteBio's data analysis software was used to fit the data to a 1:1 binding model to extract an association rate and dissociation rate.
row,Kd [nM],Binder
1,2.18,B1
2,1.72,B2
3,28.7,B3
4,2.97,B4
5,1.74,B5
6,0.78,B6
7,1.35,B7
